Changes are numbered by the printed parent chain.

To fix the notation:
T1: human TREM2 (human) (UniProt Q9NZC2)
T1 sequence (looked up): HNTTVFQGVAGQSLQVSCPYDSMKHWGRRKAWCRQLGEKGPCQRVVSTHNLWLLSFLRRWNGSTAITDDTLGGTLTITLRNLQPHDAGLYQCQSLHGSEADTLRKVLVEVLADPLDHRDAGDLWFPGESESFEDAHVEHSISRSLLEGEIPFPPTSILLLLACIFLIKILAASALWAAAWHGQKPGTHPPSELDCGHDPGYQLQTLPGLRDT

B1: 6E7 variant V34 (antibody, V domains shown)
VH: EVQLVQSGAEVKKPGESLKISCKGSGYSFTSYWIAWVRQMPGKGLEWMGIIYPGDSDTRYSPSFQGQVTISADKSISTAYLQWSSLKASDTAMYFCARQRTFYYDSSDYFDYWGQGTLVTVSS
VL: DIQMTQSPSSVSASVGDRVTITCRASQGISSWLAWYQQKPGKAPKLLIYAASSLQDGVPSRFSGSGSGTDFTLTISSLQPEDFATYFCQQADSFPRTFGQGTKLEIK
B2: 6E7 variant V80 (antibody, V domains shown)
VH: B1 VH with T101N
VL: B1 VL with D56N
B3: 6E7 variant V68 (antibody, V domains shown)
VH: B1 VH with Y103R
VL: B1 VL with D56N
B4: 6E7 variant V47 (antibody, V domains shown)
VH: B1 VH
VL: B1 VL with D56N, R96M
B5: 6E7 variant V78 (antibody, V domains shown)
VH: B1 VH with S28R
VL: B1 VL with D56N
B6: 6E7 variant V56 (antibody, V domains shown)
VH: B1 VH with S61Q
VL: B1 VL with D56N
B7: 6E7 variant V79 (antibody, V domains shown)
VH: B1 VH with R59N
VL: B1 VL with D56N
B8: 6E7 variant V7 (antibody, V domains shown)
VH: B1 VH with Y32E
VL: B1 VL with D56N
B9: 6E7 variant V94 (antibody, V domains shown)
VH: B1 VH
VL: B1 VL with S52A, D56N
B10: 6E7 variant V90 (antibody, V domains shown)
VH: B1 VH with Y32E
VL: B1 VL with S31R, D56N
B11: 6E7 variant V45 (antibody, V domains shown)
VH: B1 VH
VL: B1 VL with W32F, D56N
B12: 6E7 variant V46 (antibody, V domains shown)
VH: B1 VH
VL: B1 VL with S53T, D56N
B13: 6E7 variant V81 (antibody, V domains shown)
VH: B1 VH
VL: B1 VL with W32L, D56N
B14: 6E7 variant V57 (antibody, V domains shown)
VH: B1 VH
VL: B1 VL with R24A, D56N
B15: 6E7 variant V83 (antibody, V domains shown)
VH: B1 VH
VL: B1 VL with D56N, D92V
B16: 6E7 variant V92 (antibody, V domains shown)
VH: B1 VH with Y103H
VL: B1 VL with D56N
B17: 6E7 variant V43 (antibody, V domains shown)
VH: B1 VH with D57G
VL: B1 VL with D56N
B18: 6E7 variant V82 (antibody, V domains shown)
VH: B1 VH
VL: B1 VL with A51G, D56N
B19: 6E7 variant V6 (antibody, V domains shown)
VH: B1 VH with Y32M
VL: B1 VL with D56N
B20: 6E7 variant V67 (antibody, V domains shown)
VH: B1 VH with I50M
VL: B1 VL with D56N
B21: 6E7 variant V55 (antibody, V domains shown)
VH: B1 VH with R59I, F64H
VL: B1 VL with D56N
B22: 6E7 variant V44 (antibody, V domains shown)
VH: B1 VH with G54S
VL: B1 VL with D56N
B23: 6E7 variant V91 (antibody, V domains shown)
VH: B1 VH with G54D
VL: B1 VL with D56N
B24: 6E7 variant V42 (antibody, V domains shown)
VH: B1 VH with Y32A
VL: B1 VL with D56N
B25: 6E7 variant V93 (antibody, V domains shown)
VH: B1 VH
VL: B1 VL with S31G, D56N
B26: 6E7 variant V71 (antibody, V domains shown)
VH: B1 VH
VL: B1 VL with D56N, F94E
B27: 6E7 variant V66 (antibody, V domains shown)
VH: B1 VH with Y27T
VL: B1 VL with D56N
B28: 6E7 variant V58 (antibody, V domains shown)
VH: B1 VH
VL: B1 VL with A50K, D56N
B29: 6E7 variant V69 (antibody, V domains shown)
VH: B1 VH
VL: B1 VL with W32Y, D56N
B30: 6E7 variant V35 (antibody, V domains shown)
VH: B1 VH
VL: B1 VL with D56N, D92Y
B31: 6E7 variant V54 (antibody, V domains shown)
VH: B1 VH with Y32Q
VL: B1 VL with D56N
B32: 6E7 variant V70 (antibody, V domains shown)
VH: B1 VH
VL: B1 VL with S52G, D56N
B33: 6E7 variant V59 (antibody, V domains shown)
VH: B1 VH
VL: B1 VL with D56N, Q89M

The first experiment deals with T1, human TREM2 (human). As to the kind of experiment: 1st screen, 110 nM Ab.
For the molecule B1, the Binding Signal (fold over 6E7 parental antibody) was determined as 0.34 fold.

In the case of B2, the Binding Signal (fold over 6E7 parental antibody) was 0.59 fold.

Regarding B3, the Binding Signal (fold over 6E7 parental antibody) stood at 0.44 fold.

In the case of B4, the Binding Signal (fold over 6E7 parental antibody) was 0.42 fold.

On to B5, for which the Binding Signal (fold over 6E7 parental antibody) amounted to 0.86 fold.

For the molecule B6, the Binding Signal (fold over 6E7 parental antibody) turned out to be 0.23 fold.

As to B7, the Binding Signal (fold over 6E7 parental antibody) was 0.7 fold.

Turning to B8, the Binding Signal (fold over 6E7 parental antibody) is 0.11 fold.

As for B9, the Binding Signal (fold over 6E7 parental antibody) is 0.31 fold.

For the molecule B10, the Binding Signal (fold over 6E7 parental antibody) was determined as 0.33 fold.

As for B11, the Binding Signal (fold over 6E7 parental antibody) was found to be 0.43 fold.

B12: the Binding Signal (fold over 6E7 parental antibody) came out at 0.83 fold.

In the case of B13, the Binding Signal (fold over 6E7 parental antibody) is 0.17 fold.

Regarding B14, the Binding Signal (fold over 6E7 parental antibody) worked out at 0.84 fold.

With B15, the Binding Signal (fold over 6E7 parental antibody) was found to be 0.2 fold.

As to B16, the Binding Signal (fold over 6E7 parental antibody) turned out to be 0.22 fold.

As for B17, the Binding Signal (fold over 6E7 parental antibody) stood at 0.2 fold.

As to B18, the Binding Signal (fold over 6E7 parental antibody) was 0.3 fold.

For the molecule B19, the Binding Signal (fold over 6E7 parental antibody) stood at 0.2 fold.

As for B20, the Binding Signal (fold over 6E7 parental antibody) was 0.8 fold.

As for B21, the Binding Signal (fold over 6E7 parental antibody) amounted to 0.24 fold.

Consider B22, for which the Binding Signal (fold over 6E7 parental antibody) amounted to 0.65 fold.

B23: the Binding Signal (fold over 6E7 parental antibody) came out at 0.25 fold.

On to B24, for which the Binding Signal (fold over 6E7 parental antibody) was found to be 0.45 fold.

B25: the Binding Signal (fold over 6E7 parental antibody) amounted to 0.35 fold.

On to B26, for which the Binding Signal (fold over 6E7 parental antibody) came to 0.37 fold.

As to B27, the Binding Signal (fold over 6E7 parental antibody) was found to be 0.25 fold.

B28: the Binding Signal (fold over 6E7 parental antibody) was 0.28 fold.

Turning to B29, the Binding Signal (fold over 6E7 parental antibody) stood at 0.41 fold.

With B30, the Binding Signal (fold over 6E7 parental antibody) came to 0.21 fold.

On to B31, for which the Binding Signal (fold over 6E7 parental antibody) turned out to be 0.55 fold.

In the case of B32, the Binding Signal (fold over 6E7 parental antibody) is 0.79 fold.

As for B33, the Binding Signal (fold over 6E7 parental antibody) came to 0.19 fold.

Another experiment deals with T1, human TREM2 (human). As to the kind of experiment: 2nd screen, 100 nM Ab.
B1: the Binding Signal (fold over 6E7 parental antibody) stood at 1.02 fold.

As for B2, the Binding Signal (fold over 6E7 parental antibody) was 0.5 fold.

With B3, the Binding Signal (fold over 6E7 parental antibody) is 0.43 fold.

Regarding B4, the Binding Signal (fold over 6E7 parental antibody) stood at 0.47 fold.

Take B5: the Binding Signal (fold over 6E7 parental antibody) is 1.11 fold.

For the molecule B6, the Binding Signal (fold over 6E7 parental antibody) was 0.59 fold.

Regarding B7, the Binding Signal (fold over 6E7 parental antibody) came out at 0.52 fold.

On to B8, for which the Binding Signal (fold over 6E7 parental antibody) came out at 0.32 fold.

For B9, the Binding Signal (fold over 6E7 parental antibody) was 0.87 fold.

Turning to B10, the Binding Signal (fold over 6E7 parental antibody) is 0.36 fold.

As to B11, the Binding Signal (fold over 6E7 parental antibody) was 0.53 fold.

For the molecule B12, the Binding Signal (fold over 6E7 parental antibody) amounted to 0.96 fold.

With B13, the Binding Signal (fold over 6E7 parental antibody) amounted to 0.23 fold.

Take B14: the Binding Signal (fold over 6E7 parental antibody) came to 0.85 fold.

Turning to B15, the Binding Signal (fold over 6E7 parental antibody) turned out to be 0.29 fold.

For B16, the Binding Signal (fold over 6E7 parental antibody) was 0.65 fold.

As to B17, the Binding Signal (fold over 6E7 parental antibody) was 0.33 fold.

As to B18, the Binding Signal (fold over 6E7 parental antibody) turned out to be 0.79 fold.

As to B19, the Binding Signal (fold over 6E7 parental antibody) stood at 0.56 fold.

As for B20, the Binding Signal (fold over 6E7 parental antibody) was 0.84 fold.

On to B21, for which the Binding Signal (fold over 6E7 parental antibody) is 0.66 fold.

As to B22, the Binding Signal (fold over 6E7 parental antibody) was found to be 0.52 fold.

Turning to B23, the Binding Signal (fold over 6E7 parental antibody) worked out at 0.61 fold.

For B24, the Binding Signal (fold over 6E7 parental antibody) was determined as 0.41 fold.

For B25, the Binding Signal (fold over 6E7 parental antibody) was found to be 1.05 fold.

With B26, the Binding Signal (fold over 6E7 parental antibody) came to 0.48 fold.

As to B27, the Binding Signal (fold over 6E7 parental antibody) turned out to be 0.74 fold.

For B28, the Binding Signal (fold over 6E7 parental antibody) was 0.68 fold.

Regarding B29, the Binding Signal (fold over 6E7 parental antibody) came out at 0.4 fold.

In the case of B30, the Binding Signal (fold over 6E7 parental antibody) turned out to be 0.29 fold.

Regarding B31, the Binding Signal (fold over 6E7 parental antibody) was determined as 0.54 fold.

B32: the Binding Signal (fold over 6E7 parental antibody) was 0.84 fold.

For the molecule B33, the Binding Signal (fold over 6E7 parental antibody) was 0.6 fold.
